The values below come from US20250018014A1, “METHOD FOR TREATING AND/OR PREVENTING REGNASE-1-RELATED DISEASE” (OSAKA UNIVERSITY, priority 2018, published 2025).

Positions of bridges follow the written chain, without caps; N, C: chain ends. Non-standard residues stand in square brackets, D forms with d. *: point of attachment. Pyrrolidide = C1CCN(*)C1; dNMeA = CN[C@H](C)C(=O)O

Assay in all cases: cell-based or functional assay
The target of assay [1] is T1, C-terminal human Regnase-1 (amino acids 301 to 599) with N-terminal FLAG tag and C-terminal BirA recognition … (human, UniProt Q5D1E8 301-599).
T1 sequence: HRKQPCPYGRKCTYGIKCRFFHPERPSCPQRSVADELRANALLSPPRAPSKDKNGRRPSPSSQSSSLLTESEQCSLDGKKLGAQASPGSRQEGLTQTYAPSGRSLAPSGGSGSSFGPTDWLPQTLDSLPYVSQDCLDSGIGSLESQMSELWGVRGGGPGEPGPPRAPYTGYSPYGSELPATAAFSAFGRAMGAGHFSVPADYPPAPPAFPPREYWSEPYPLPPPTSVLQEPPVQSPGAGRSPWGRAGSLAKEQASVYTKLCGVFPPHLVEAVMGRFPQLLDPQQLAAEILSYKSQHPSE

In assay [2] the target is T2, full-length human Regnase-1 with a FLAG tag on the N-terminal side and a biotin ligase BirA recognition … (human, UniProt Q5D1E8 1-599, biotinylated at the BirA recognition sequence when required).
T2 sequence: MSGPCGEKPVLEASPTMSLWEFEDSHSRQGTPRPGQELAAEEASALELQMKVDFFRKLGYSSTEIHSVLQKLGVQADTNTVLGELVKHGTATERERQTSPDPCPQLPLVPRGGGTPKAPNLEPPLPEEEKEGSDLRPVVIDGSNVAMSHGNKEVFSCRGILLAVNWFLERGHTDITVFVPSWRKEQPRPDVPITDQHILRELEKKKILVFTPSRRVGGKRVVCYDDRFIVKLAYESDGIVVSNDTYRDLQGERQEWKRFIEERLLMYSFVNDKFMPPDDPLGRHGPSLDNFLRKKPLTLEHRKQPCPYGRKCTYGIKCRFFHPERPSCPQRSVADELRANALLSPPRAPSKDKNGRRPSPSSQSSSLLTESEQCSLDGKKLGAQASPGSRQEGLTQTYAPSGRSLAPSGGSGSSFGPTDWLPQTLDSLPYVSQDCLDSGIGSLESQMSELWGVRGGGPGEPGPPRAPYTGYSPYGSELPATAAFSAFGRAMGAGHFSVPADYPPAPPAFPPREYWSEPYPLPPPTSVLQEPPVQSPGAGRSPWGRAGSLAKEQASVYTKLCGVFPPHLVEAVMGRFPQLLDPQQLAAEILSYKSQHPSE

The target of assay [3] is T3, C-terminal domain-deleted human Regnase-1 (amino acids 1 to 546) with N-terminal FLAG tag and C-terminal BirA … (human, UniProt Q5D1E8 1-546).
T3 sequence: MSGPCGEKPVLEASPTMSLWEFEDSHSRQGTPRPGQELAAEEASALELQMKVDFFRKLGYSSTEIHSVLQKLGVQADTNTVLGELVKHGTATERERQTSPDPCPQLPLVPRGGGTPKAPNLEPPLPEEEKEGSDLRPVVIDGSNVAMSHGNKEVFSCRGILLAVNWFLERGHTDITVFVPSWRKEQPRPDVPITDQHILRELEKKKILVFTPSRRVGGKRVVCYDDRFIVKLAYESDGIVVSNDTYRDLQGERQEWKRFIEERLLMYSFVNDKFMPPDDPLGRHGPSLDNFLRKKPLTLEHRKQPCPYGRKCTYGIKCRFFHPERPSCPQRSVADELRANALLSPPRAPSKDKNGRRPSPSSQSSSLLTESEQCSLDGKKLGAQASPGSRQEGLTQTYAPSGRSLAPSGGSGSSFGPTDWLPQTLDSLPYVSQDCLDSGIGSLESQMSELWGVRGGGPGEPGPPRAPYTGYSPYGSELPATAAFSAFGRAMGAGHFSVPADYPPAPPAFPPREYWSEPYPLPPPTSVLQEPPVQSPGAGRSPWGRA

For assay [4], the target named is T1, C-terminal human Regnase-1 (amino acids …). This is another data set of the same source.
Assay [5] deals with T2, full-length human Regnase-1 with a FLAG …. This is another data set of the same source.
Assay [6] has as its target T3, C-terminal domain-deleted human …. The source holds these as a separate data set.

B1: PP12 (peptide)
peptide: XRYAVYQWIYPD
HELM: PEPTIDE1{[meA].R.Y.A.V.Y.Q.W.I.Y.P.D.[C1CCN([*:1])C1]}$PEPTIDE1,PEPTIDE1,1:R1-12:R3$$$V2.0
SMILES: CC[C@H](C)[C@@H]1NC(=O)[C@H](Cc2c[nH]c3ccccc23)NC(=O)[C@H](CCC(N)=O)NC(=O)[C@H](Cc2ccc(O)cc2)NC(=O)[C@H](C(C)C)NC(=O)[C@H](C)NC(=O)[C@H](Cc2ccc(O)cc2)NC(=O)[C@H](CCCNC(=N)N)NC(=O)[C@H](C)N(C)C(=O)C[C@@H](C(=O)N2CCCC2)NC(=O)[C@@H]2CCCN2C(=O)[C@H](Cc2ccc(O)cc2)NC1=O
Regarding B1, the “50% inhibition concentration, Regnase-1 phosphorylation by IKKβ (AlphaScreen)” value in assay [1] turned out to be 20.7 µM; in assay [2], 6.8 µM; in assay [3] it was 27 µM. Further, the results for the “50% inhibition concentration, Regnase-1 phosphorylation by TBK1 (AlphaScreen)” value in assay [4], in assay [5] and in assay [6] were 19.6 µM, 12.7 µM and 22.5 µM, respectively.

B2: PP10 (peptide)
peptide: XNYQSWYYRSIWD
HELM: PEPTIDE1{[meA].N.Y.Q.S.W.Y.Y.R.S.I.W.D.[C1CCN([*:1])C1]}$PEPTIDE1,PEPTIDE1,1:R1-13:R3$$$V2.0
SMILES: CC[C@H](C)[C@@H]1NC(=O)[C@H](CO)NC(=O)[C@H](CCCNC(=N)N)NC(=O)[C@H](Cc2ccc(O)cc2)NC(=O)[C@H](Cc2ccc(O)cc2)NC(=O)[C@H](Cc2c[nH]c3ccccc23)NC(=O)[C@H](CO)NC(=O)[C@H](CCC(N)=O)NC(=O)[C@H](Cc2ccc(O)cc2)NC(=O)[C@H](CC(N)=O)NC(=O)[C@H](C)N(C)C(=O)C[C@@H](C(=O)N2CCCC2)NC(=O)[C@H](Cc2c[nH]c3ccccc23)NC1=O
For the molecule B2, the “50% inhibition concentration, Regnase-1 phosphorylation by IKKβ (AlphaScreen)” value worked out at 1.8 µM in assay [1], 0.5 µM in assay [2] and 2.6 µM in assay [3]. For the same molecule, the “50% inhibition concentration, Regnase-1 phosphorylation by TBK1 (AlphaScreen)” value is 0.4 µM in assay [4], 0.2 µM in assay [5] and 0.2 µM in assay [6].

B3: PP9 (peptide)
peptide: [dNMeA]TYGHSSWYKIWD-Pyrrolidide
modifications: lactam N-13
For B3, the “50% inhibition concentration, Regnase-1 phosphorylation by IKKβ (AlphaScreen)” value is 6.2 µM in assay [1], 2.7 µM in assay [2] and 6.4 µM in assay [3]. Moreover, the “50% inhibition concentration, Regnase-1 phosphorylation by TBK1 (AlphaScreen)” value in assay [4] was found to be 7.9 µM; in assay [5], 4.2 µM; in assay [6], 6.6 µM.

B4: PP8 (peptide)
peptide: XSKYWNSWYNIWD
HELM: PEPTIDE1{[C[C@H](C(=O)[*:2])N(C)[*:1]].S.K.Y.W.N.S.W.Y.N.I.W.D.[C1CCN([*:1])C1]}$PEPTIDE1,PEPTIDE1,1:R1-13:R3$$$V2.0
SMILES: CC[C@H](C)[C@@H]1NC(=O)[C@H](CC(N)=O)NC(=O)[C@H](Cc2ccc(O)cc2)NC(=O)[C@H](Cc2c[nH]c3ccccc23)NC(=O)[C@H](CO)NC(=O)[C@H](CC(N)=O)NC(=O)[C@H](Cc2c[nH]c3ccccc23)NC(=O)[C@H](Cc2ccc(O)cc2)NC(=O)[C@H](CCCCN)NC(=O)[C@H](CO)NC(=O)[C@@H](C)N(C)C(=O)C[C@@H](C(=O)N2CCCC2)NC(=O)[C@H](Cc2c[nH]c3ccccc23)NC1=O
In the case of B4, the “50% inhibition concentration, Regnase-1 phosphorylation by IKKβ (AlphaScreen)” value amounted to 5.7 µM in assay [1], 1.4 µM in assay [2] and 7.8 µM in assay [3]. Besides, the entries for the “50% inhibition concentration, Regnase-1 phosphorylation by TBK1 (AlphaScreen)” value in assay [4], in assay [5] and in assay [6] were 6 µM, 2.9 µM and 5.5 µM, respectively.

B5: PP11 (peptide)
peptide: XKFAQFRWIYPD
HELM: PEPTIDE1{[meA].K.F.A.Q.F.R.W.I.Y.P.D.[C1CCN([*:1])C1]}$PEPTIDE1,PEPTIDE1,1:R1-12:R3$$$V2.0
SMILES: CC[C@H](C)[C@@H]1NC(=O)[C@H](Cc2c[nH]c3ccccc23)NC(=O)[C@H](CCCNC(=N)N)NC(=O)[C@H](Cc2ccccc2)NC(=O)[C@H](CCC(N)=O)NC(=O)[C@H](C)NC(=O)[C@H](Cc2ccccc2)NC(=O)[C@H](CCCCN)NC(=O)[C@H](C)N(C)C(=O)C[C@@H](C(=O)N2CCCC2)NC(=O)[C@@H]2CCCN2C(=O)[C@H](Cc2ccc(O)cc2)NC1=O
On to B5, for which the “50% inhibition concentration, Regnase-1 phosphorylation by IKKβ (AlphaScreen)” value in assay [1] was greater than 62.1 µM; in assay [2] it was 22.3 µM; in assay [3] it was greater than 62.1 µM. The “50% inhibition concentration, Regnase-1 phosphorylation by TBK1 (AlphaScreen)” value in assay [4] was greater than 62.1 µM; in assay [5], 29.1 µM; in assay [6] it was 55.6 µM.

B6: PP7 (peptide)
peptide: XNFNSAYYRAIWD
HELM: PEPTIDE1{[meA].N.F.N.S.A.Y.Y.R.A.I.W.D.[C1CCN([*:1])C1]}$PEPTIDE1,PEPTIDE1,1:R1-13:R3$$$V2.0
SMILES: CC[C@H](C)[C@@H]1NC(=O)[C@H](C)NC(=O)[C@H](CCCNC(=N)N)NC(=O)[C@H](Cc2ccc(O)cc2)NC(=O)[C@H](Cc2ccc(O)cc2)NC(=O)[C@H](C)NC(=O)[C@H](CO)NC(=O)[C@H](CC(N)=O)NC(=O)[C@H](Cc2ccccc2)NC(=O)[C@H](CC(N)=O)NC(=O)[C@H](C)N(C)C(=O)C[C@@H](C(=O)N2CCCC2)NC(=O)[C@H](Cc2c[nH]c3ccccc23)NC1=O
For the molecule B6, the “50% inhibition concentration, Regnase-1 phosphorylation by IKKβ (AlphaScreen)” value came out at 3 µM in assay [1], 0.8 µM in assay [2] and 4.5 µM in assay [3]. Also, the “50% inhibition concentration, Regnase-1 phosphorylation by TBK1 (AlphaScreen)” value in assay [4] came out at 4.6 µM; in assay [5], 2.2 µM; in assay [6], 4.7 µM.

B7: PP13 (peptide)
peptide: XRFRQWKWVYPD
HELM: PEPTIDE1{[meA].R.F.R.Q.W.K.W.V.Y.P.D.[C1CCN([*:1])C1]}$PEPTIDE1,PEPTIDE1,1:R1-12:R3$$$V2.0
SMILES: CC(C)[C@@H]1NC(=O)[C@H](Cc2c[nH]c3ccccc23)NC(=O)[C@H](CCCCN)NC(=O)[C@H](Cc2c[nH]c3ccccc23)NC(=O)[C@H](CCC(N)=O)NC(=O)[C@H](CCCNC(=N)N)NC(=O)[C@H](Cc2ccccc2)NC(=O)[C@H](CCCNC(=N)N)NC(=O)[C@H](C)N(C)C(=O)C[C@@H](C(=O)N2CCCC2)NC(=O)[C@@H]2CCCN2C(=O)[C@H](Cc2ccc(O)cc2)NC1=O
Take B7: the “50% inhibition concentration, Regnase-1 phosphorylation by IKKβ (AlphaScreen)” value in assay [1] turned out to be 23.2 µM; in assay [2] it was 3.6 µM; in assay [3], 43.2 µM. In addition, the “50% inhibition concentration, Regnase-1 phosphorylation by TBK1 (AlphaScreen)” value stood at 18 µM in assay [4], 8.4 µM in assay [5] and 17.7 µM in assay [6].
